Experimental data published in publication PMC7708047, “VEZF1–guanine quadruplex DNA interaction regulates alternative polyadenylation and detyrosinase activity of VASH1”.

T1: VEZF1-3xFlag (Homo sapiens, UniProt Q14119 1-521)
T1 sequence: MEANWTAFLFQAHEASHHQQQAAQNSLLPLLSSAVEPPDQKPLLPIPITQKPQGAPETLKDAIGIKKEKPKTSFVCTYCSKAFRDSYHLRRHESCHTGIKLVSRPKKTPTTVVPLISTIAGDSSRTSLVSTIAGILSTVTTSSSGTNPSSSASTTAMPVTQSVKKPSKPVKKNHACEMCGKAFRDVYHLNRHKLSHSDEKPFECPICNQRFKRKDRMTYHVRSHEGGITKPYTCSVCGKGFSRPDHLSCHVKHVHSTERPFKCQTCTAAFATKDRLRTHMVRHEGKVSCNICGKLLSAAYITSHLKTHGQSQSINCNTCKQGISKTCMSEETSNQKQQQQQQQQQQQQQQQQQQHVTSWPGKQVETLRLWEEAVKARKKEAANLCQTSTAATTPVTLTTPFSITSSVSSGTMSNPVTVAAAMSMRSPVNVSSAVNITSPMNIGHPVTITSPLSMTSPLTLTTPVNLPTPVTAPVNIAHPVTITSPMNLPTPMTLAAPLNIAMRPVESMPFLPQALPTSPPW


Target: T1, VEZF1-3xFlag
Assay: EMSA; 100 mM K+, 10 uM Zn2+; EMSA: 25 nM DNA, 10 mM Tris-HCl pH 7.5, 100 mM KCl, 10 uM ZnCl2, 1 mM DTT, 3% glycerol, on ice 30 min; 6% PAGE in TBE pH 8.3, 4 C
Details: protein: recombinant, tags: C-terminal 3xFlag, label: 5'-TAMRA

Binder | binding result (single strand) | Kd (G4) [nM] | further results
R1M4-2 (ssDNA) DNA: TCGTGAGTGTGGAGTGAGGTGCTGTGCCTGAGCTGAGAGCAGCTTAGTTTGCA | no binding | – | –
AAAGGGTTAGTGTTAGTGTTAGGGAA (ssDNA) [hTEL M4] | – | – | Kd (single strand): 1640 ± 70 nM
AAAGGGTTAGGGTTAGGGTTAGGGAA (structured_DNA) [hTEL G4] | – | 780 ± 40 | –
GTGTGAGGTGGAAGTGAAAGAAGTGAAGAGCAGTGAGAGTGTGCC (ssDNA) [R1M4-1] | no binding | – | –
TGAGGGTGAGGAGTGTGGGGA (ssDNA) [MYC M4] | no binding | – | –
TGAGGGTGGGGAGGGTGGGGA (structured_DNA) [MYC G4] | – | 2060 ± 120 | –
